Reference: patent publication US20190248902A1 (published 2019)

T1: human ASGR-1 (wild type) (human, UniProt P07306 1-291)
T1 construct: also called wt ASGR1; huASGR-1
T1 sequence: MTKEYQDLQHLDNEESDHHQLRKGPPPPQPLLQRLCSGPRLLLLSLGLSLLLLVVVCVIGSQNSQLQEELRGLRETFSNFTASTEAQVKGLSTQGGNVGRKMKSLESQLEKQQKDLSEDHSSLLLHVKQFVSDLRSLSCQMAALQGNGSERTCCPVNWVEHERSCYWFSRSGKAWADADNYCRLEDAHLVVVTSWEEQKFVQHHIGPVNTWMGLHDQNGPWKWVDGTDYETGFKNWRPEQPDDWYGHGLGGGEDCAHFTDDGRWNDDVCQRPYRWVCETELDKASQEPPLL

T2: human ASGR-1 mutant construct H203 (human, UniProt P07306 1-291)
T2 construct: Arg/Glu scanning: non-arginine residues were changed to arginine; Transiently expressed on CHO-S cells
T2 sequence: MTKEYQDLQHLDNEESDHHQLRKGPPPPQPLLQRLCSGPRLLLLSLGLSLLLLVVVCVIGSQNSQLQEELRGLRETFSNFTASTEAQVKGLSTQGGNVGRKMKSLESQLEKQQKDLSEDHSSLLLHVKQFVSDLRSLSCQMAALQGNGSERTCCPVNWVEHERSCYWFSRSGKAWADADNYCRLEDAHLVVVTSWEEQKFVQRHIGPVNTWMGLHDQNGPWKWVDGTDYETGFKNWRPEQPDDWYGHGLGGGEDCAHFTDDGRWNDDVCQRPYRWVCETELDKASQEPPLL

T3: soluble human ASGR-1 carbohydrate binding domain (CBD; amino acid residues 154-281; N-terminal 6xHis tag) (human, UniProt P07306 154-281)
T3 construct: also called ASGR-1 CBD
T3 sequence: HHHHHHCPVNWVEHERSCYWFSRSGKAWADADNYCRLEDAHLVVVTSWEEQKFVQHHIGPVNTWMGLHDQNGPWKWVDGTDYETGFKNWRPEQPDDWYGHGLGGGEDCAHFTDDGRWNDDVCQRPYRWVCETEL


Tests used:
human ASGR-1 (wild type) [1] = biological target: T1, human ASGR-1 (wild type); experiment: flow cytometry, CHO-S:huASGR-1 cells, 11-point titration
Method: CHO—S stable high-expressing cell line were developed for both human ASGR-1 as well as mouse ASGR-1. A typical 384 well plate multiplex flow cytometery-based cell binding method is described as followed: Parental CHO—S cells and CHO—S:huASGR-1 cells were respectively labeled using a CellTrace CFSE Cell Proliferation Kit (ThermoFisher Catalog #C34554) and CellTrace Violet Cell Proliferation Kit (ThermoFisher Catalog#C34557) CHO—S:muASGR-1 were not labeled. 20 ul of cells at 4C were added to duplicate wells of the 384 well plate. The cells were equally mixed from all three cell lines (30K cells/well). Then 20 ul of the ASGR-1 antibodies (either purified from hybridoma supernatants or made recombinantly) were added in an 11-point dose response using a 1:2 fold serial dilution starting at 100 nM. The cells and antibodies were incubated for 30 min at 4C and then spun down and washed twice with FACS buffer containing 1 mM CaCl2. 30 ul of anti-hulgG-APC secondary antibodies were then added at a 1:1000 dilution) for 30 min at 4C and then washed once with the same buffer. 60 ul of PI (1:1000) was added and then the cells were read by a core flow cytometry facility. The cells were gated first for live cells, then for single cells and finally for the cell dyes to separate the mixed cells into the three different cell populations. Histograms of signal vs count representing the binding profile of each antibody at each antibody concentration were automatically analyzed for the median of the binding signal and then a binding graph was made with log 10 antibody concentration in nM on the X axis with […] from the duplicate wells on the Y-axis. The binding curves were fit with a standard four parameter sigmoidal binding curve and EC50's reported for all graphs with full curves.

[2] = biological target: T2, human ASGR-1 mutant construct H203; experiment: FACS ratio: 65C12 geomean / this mAb geomean
Summary of the method: (§1)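 Value is the geomean of reference antibody 65C12 divided by that of the test mAb, correcting for construct expression. Binding was measured by flow cytometry on transiently transfected CHO-S cells after 1 h at 4 °C with antibody at 5 ug/ml. Detection used an anti-Fc Alexa 647 secondary, with 7-AAD to exclude dead cells.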

human ASGR-1 (wild type) [3] = biological target: T1, human ASGR-1 (wild type); experiment: FACS ratio: 65C12 geomean / this mAb geomean
Summary of the method: as §1

[4] = biological target: T2, human ASGR-1 mutant construct H203; experiment: FACS ratio: H203 normalized value / wt normalized value
Summary of the method: (§2)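 Transiently transfected CHO-S cells expressing wild-type or mutant hASGR-1 incubated with antibody at 5 ug/ml, 1 h at 4 °C; bound antibody detected by Alexa Fluor 647 anti-Fc plus 7-AAD, by flow cytometry. Binding normalized to expression using an unaffected antibody (65C12), then to wild type; hits defined as >3× IQR above third quartile.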

[5] = biological target: T2, human ASGR-1 mutant construct H203; experiment: FACS, transfected CHO-S cells, mAb 5 ug/ml
Summary of the method: as §2

human ASGR-1 (wild type) [6] = biological target: T1, human ASGR-1 (wild type); experiment: FACS, transfected CHO-S cells, mAb 5 ug/ml
Summary of the method: as §2

[7] = biological target: T3, soluble human ASGR-1 carbohydrate …; experiment: Octet BLI, mAb on AR2G tips, 1:1 fit
Excerpt: To quantitate the binding affinity of specific antibodies for ASGR-1 (either purified from hybridoma supernatants or made recombinantly), association and dissociation rates can be measured using a ForteBio Octet instrument. […] Experimental kinetic results were globally fit to a 1:1 binding model in order to determine the association and dissociation rate constants as well as the equilibrium dissociation constant. Association and dissociation times were chosen to ensure that curvature was present during association curves and measured dissociation levels dropped at least 5% from starting levels. All Octet buffers contained 10 mM Tris (pH7.5), 150 mM NaCl, 1 mM CaCl₂), 0.10 mg/ml BSA and 0.13% Triton X-100. Octet assays were run at 27° C. Because this assay only measures binding to the ASGR-1 CBD, antibodies that recognize epitopes partially or entirely outside the CBD and/or recognize ASGR-1 in the context of a native ASGR complex, for example, as could occur on cell membranes, may not score as positive in this assay.

EC50 (human ASGR-1 (wild type) [1]) [nM]	Expression Normalization to mAb 65C12 [2]	Expression Normalization to mAb 65C12 (human ASGR-1 (wild type) [3])	Normalization to wt ASGR1 Binding [4]	FACS Binding Geomean [5]	FACS Binding Geomean (human ASGR-1 (wild type) [6])	Kd [7] [nM]	Binder
4.1							4B1 (antibody, V domains shown, mAb) VH: QVQLQESGPGLVKPSETLSLTCSVSGDSISSYSWSWIRQPAGKGLEWIGRIYTSGSTNYIPSLKSRITMSVDTSKKQFSLKLSSVTAADTAVYYCARDLKSSGCLFFDYWGQGTLVTVSS VL: DIQMTQSPSSLSASVGDRVTITCRASHTIRTYLNWYQQKPGKAPKLLIYAASSLQSGVPSRINGSGSGTDFTLTITNLQPEDFATYYCQQSYNISFTFGPGTKVDIK
0.14	3.61	3.32	1.09	7140	16900		198D2 (antibody, V domains shown, mAb) VH: QVQLVESGGGVVQPGRSLRLSCAASGFTFRSYGMHWVRQAPGKGLEWVAVIIYDGSYKYYADSVKGRFTISRDNSKNTLYLQMNSLRAEDTAVYYCARTYSGGMDVWGQGTTVTVSS VL: QSVLTQPPSVSAAPGQKVTISCSGSSSNIGSNYVSWYQQLPGTAPKVLIYDNNKRPSGIPDRFSGSKSGTSATLGITGLQTGDEADYYCGTWDSRLNVGVFGGGTKLTVL
	1	1	1	25800	56100		65C12 (antibody, V domains shown, mAb) VH: EVQLVESGGGLVKPGGSLRLSCAASGFTFRSFSLNWVRQAPGKGLEWVSSISSSSSYIYYADSVKGRFTISRDNAKNSLYLQMNSLRAEDTAVYYCARDAYSHYWGQGTLVTVSS VL: EIVMTQSPATLSVFPGEGATLSCRASQSVSINLAWYQQKPGQAPRLLIYGASTRATGIPARFNASGSGTEFTLSISSLQSENFAVYYCQQYNTWPLTFGGGTKVEIK
3.2							12D2 (antibody, V domains shown, mAb) VH: EVQLVESGGGLVKPGGSLRLSCAASGFTFSSYSMNWVRQAPGKGLEWVSSISSSSSYIYYADSVKGRFTISRDNAKNSLYLQMNSLRAEDTAVYYCARLGDYWGQGTLVAVSS VL: not shown
0.8	2.06	2.26	0.913	12500	24800		202A3 (antibody, V domains shown, mAb) VH: QVQLEQSGAEVKKPGASVKVSCKASGYTFTSYDINWVRQATGQGLEWLGWMNPKRGNTGYAQKFQGRVTMTRNTSISTAHMELSSLRSEDTAVYYCARGRYSREDYYYYYDMDVWGQGTTVTVSS VL: DIQMSQSPSSLSASVGDRVTITCRASQGIRNDLGWYQQKPGKAPKRLICAASRLQSGVPSRFSGSGSGTEFTLTISSLQPEDFAIYYCLQHHDYPFTFGPGTKVDIK
	2.72	3.3	0.826	9460	17000		199A7 (antibody, V domains shown, mAb) VH: QVQLVESGGGVVQPGRSLRLSCAASGFTFSNYGMHWVRQAPGKGLEWVAIIWFDGSNKYYADSVKGRFTISRDNSKNTLFLQMSSLRAEDTAVYYCAREWLQFRYYYGMDVWGQGTTVTVSS VL: DIQMTQSPSSLSASVGDRVTITCRASQGIRKDLGWYQQKPGKAPKRLIYAASSLQSGVPSRFSGSGSGTEFTLTISSLQPEDFATYVCLQHYRYPFTFGPGTKVDFK
5.4						1.2	7F4 (antibody, V domains shown, mAb) VH: QLQLQESGPGLVKPSETLSLTCTVSGGSISRSSYYWGWIRQPPGKGLEWIGNIYYSGATYYNPSLKSRVTISVDTSTNQFSLKLSSVTAADTAVYYCARHSGSWSLDYWGQGTLVTVSS VL: DIQMTQSPSSLSASVGDRVTITCRTSQGIRNDLGWYQQKPGKAPKRLIYAASNLQSGVPSRFSGSGSGTEFTLTISSLQPEDFATYYCLQHSAYPLTFGGGTKVEIK
5	1.68	1.45	1.16	15300	38600		54E9 (antibody, V domains shown, mAb) VH: QVQLVQSGAEVKKPGASVKVSCKASGYTFNSYGISWVRLAPGQGLEWMGWISAYNGNTKNAQKLQGRVTMTTDTSTSTAYMELRSLRSDDTAVYYCARHDFWSGYYKGMDVWGQGTTVTVSS VL: not shown
1.7						4.8	4H6 (antibody, V domains shown, mAb) VH: QVQLVQSGAEVKKPGASVKVSCKASGYTFTDYYLHWVRQAPGQGLEWMGWIHPNSGGTNYAQKFQGRVTMTRDTSISTAYMGLSSLRSDDTAVYYCARDGTSSFDYWGQGTLVTVSS VL: DIQMTQSPSSVSASVGDRVTITCRASQGISRWLAWYQQKPGKAPKLLIYGASSLQSGVPSRFSGSGSGTDFTLTISSLQPEDFAIYYCQQANSFPFTFGPGTKVDIK
	1.79	2.32	0.769	14400	24100		146B6 (antibody, V domains shown, mAb) VH: EVQLVESGGGLVQPGGSLRLSCAASGFTFSSYNMNWVRQAPGKGLEWVSYISRSSNTKHYADSVKGRFTISRDNAKNSLYLQMDSLRDEDTAVYYCARDRSGSYGYFYYYGLDVWGQGTTVTVSS VL: not shown
